± gives the uncertainty stated by the source.

The data set is described as follows: amyloid nucleation score (Sup35N fusion, yeast selection) (log enrichment); library NNK2; higher = more nucleation; inactive = no reads after selection. The essentials:
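The nucleation score equals the log enrichment of output over input reads from DiMSum, centred on the mode score of non-aggregating sequences. It was computed only for sequences with 100 or more input reads. The reads came from Illumina sequencing of plasmid inserts from psi-negative yeast expressing Sup35N fused to peptides of 20 random codons, induced with 100 μM copper sulfate for 24 hours and grown 7 days at 30°C without adenine and uracil.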
Substance VSRAFNFSRCRRKISPALQC displayed an amyloid nucleation score of 0.135 ± 0.33.

Consider RVIGVWILIAWQRQV, for which the amyloid nucleation score worked out at 0.822 ± 0.66. The figure for TGQSKDNQDSNMGVICLFYS is 4.389 ± 0.04; for GNSYNVKTYTNLVGIIMDKA it is “inactive”. As to AVPGVC, the amyloid nucleation score came to 0.72 ± 0.26. MWRVWECGGRRDNLVRCPSR came in with an amyloid nucleation score of 0.774 ± 0.51. The figure for FMFPGRRPFPIAMWELRFFS is -0.427 ± 1.1; for WLPMYL it is 0.194 ± 0.26; for NNWYNTYYKSIKASQPRSSR it is -0.797 ± 1.1. The figure for GRLSISDYIY is 1.02 ± 0.61; for PFDFAGA it is 2.91 ± 0.087; for YLLFHYGFLN it is -1.1 ± 0.63. The result for FRYFSVP reads -0.52 ± 0.36.

For the substance NRGWSFKLQWHYSLSYTS, the amyloid nucleation score stood at 4 ± 0.084. The result for RFAMFMVVRWGWDHKYEFLR reads 0.353 ± 0.33; that for FKRSTCNLR, -0.479 ± 0.29; that for SSFCNISAAGYFHIVMLRVV, -0.3 ± 0.5. With VRRYYDSKSSIAYMLSIRVD, the amyloid nucleation score was -0.447 ± 0.27. The result for ILQVPRTFFIRSHRSSVHL reads “inactive”; that for VSRDIIKKVSASNRSMVSDS, 0.163 ± 0.56; that for GSYKSGSSSA, 2.57 ± 0.1. The entry for YKYSCFDRG is “inactive”; for PMFYGCGPKLCDYYMNVLFV it is 2.85 ± 0.12. Regarding GDMVIDLSKYITYSSL, the amyloid nucleation score was 1.37 ± 0.38. The result for GMYNLSSGYRCERVGVAENI reads -0.513 ± 0.3. The substance VANEDDRYYTYGADWERLLL came in with an amyloid nucleation score of 0.844 ± 0.56. The figure for KRNVLRVTSCHKEYSVGSVP is 0.739 ± 0.22.

On to TLMDLNNHPTYGYLLVPTVD, for which the amyloid nucleation score is -0.307 ± 0.79. The result for ASSFMSDGRT reads 0.35 ± 0.56; that for VEGLNCVLSDNKVANGS, -0.791 ± 0.44. The figure for AIPSRPSFLKPQPRILFTIP is -0.702 ± 0.39; for YGGDLYLIFDLLDRVILL it is “inactive”. The result for LSTRLGNVSHFWLWTRSCMG reads 1.04 ± 0.34; that for TTSLSYFLIQKALLWKVEYH, -1.38 ± 0.38; that for FILCMTSWDYLDDCRFLFEL, 1.03 ± 0.25. In turn, GGHDCTVPDGFALGWYMTRG gave an amyloid nucleation score of 0.995 ± 0.51. The figure for KNSIDQVTWTCNRYLKLVLS is -0.402 ± 0.39; for AKCPIRNRSLSCIQWSGGAK it is 0.398 ± 0.27.

Turning to VVAKAGRSKFSGCSRATAGG, the amyloid nucleation score is 0.609 ± 0.41. The figure for VSTKVGSSYEVVGYKVSHFG is -0.291 ± 0.76. The substance NWLCRWWQGWNLT showed an amyloid nucleation score of 0.739 ± 0.28. The result for SVCVRT reads “inactive”.

For MFKWHYWVEHNFSTRDNICA, the amyloid nucleation score result is “inactive”.

For MFASNLRKMSGGGVI, the amyloid nucleation score was -0.694 ± 1.1. The figure for NPLYEGSFFWGWKFIDFRQH is 0.131 ± 1.

Consider ACVTPTAARNQIPALIYDTS, for which the amyloid nucleation score was -0.135 ± 0.63. The result for LKNVLTCESVINQLR reads -0.464 ± 0.39; that for RQEFNCIASCRF, 2.12 ± 0.091; that for QLVYCVNFVFFARVTNRSAR, 3.95 ± 0.06. The figure for LVNTYYAHVWWLLVGIMMLS is -0.645 ± 1.1. As to KSASRYNRQWNRHSYWMANR, the amyloid nucleation score was -0.064 ± 0.34. The result for LHFSICMPTGCDVPPGDKGG reads “inactive”. The figure for YIESIAECQSVRVGSIVDCF is -1.33 ± 0.75; for RGRAFGPEIRNKSLGLTYPV it is 0.282 ± 0.21; for RLSRCL it is 4.23 ± 0.055. AHLARGGWFVKRCYSGGDVF: the amyloid nucleation score was -0.087 ± 0.76. As to ERGSYLRESRYIVFFNLLIL, the amyloid nucleation score result is “inactive”. As for SGISKTGLYASYWGYLSGGK, the amyloid nucleation score was -0.453 ± 0.27.

In the case of RLGPSSWSWHL, the amyloid nucleation score came out at 1.52 ± 0.29. For NSRQYSVMIVQLIPCCQLIP, the amyloid nucleation score came out at 0.033 ± 0.6. The result for VYTLIIDW reads -1.44 ± 0.78; that for NLYSLPQEDRSLNDEKGG, 0.121 ± 0.49; that for TWGQVII, -0.465 ± 1. Consider RLMDGYSSV, for which the amyloid nucleation score is 0.548 ± 0.29. CLITLLIMECKYAVDLWGSV registered an amyloid nucleation score of 1.04 ± 0.34. The figure for RGVVWRR is 0.23 ± 0.63; for VRFNGLVR it is “inactive”. The figure for CRVRYTGGY is 0.523 ± 0.35; for LFVYIFVVKVDF it is 0.959 ± 0.27. The figure for TPSRFWPMLFSVNLWLRGWL is 0.017 ± 0.62. The substance SSLVWLKMNGNGTKTVFMN returned an amyloid nucleation score of 1.24 ± 0.14. The figure for EGFLRIVKVVTTIWWTGLFC is -1.23 ± 1. Consider QYWTNRCKDWERVSRKPLKL, for which the amyloid nucleation score entry is “inactive”. Regarding KYCDWYL, the amyloid nucleation score is -0.274 ± 0.22. As for FSSATDVCDGSRSIIRIAGA, the amyloid nucleation score was -0.283 ± 1.

Substance VLFSRTTSEEDKRSIISMNN gave an amyloid nucleation score of 2.17 ± 0.18. For WLNVDYSYSALRLHNCNGLM, the amyloid nucleation score amounted to 1.64 ± 0.085. The result for LSVAKPSSACRVKLWSPSVG reads 0.492 ± 0.56; that for DTAHTNISECRAMVRMYRSR, -0.755 ± 1.1; that for VKMLSLKSIHLSYFCECASW, 0.28 ± 0.21. The result for RQALVRILFSSSRIGGM reads -0.857 ± 0.44; that for CRRVIAESFYDTSLSCSAVG, 0.877 ± 0.47.

Consider WHQVRPARV, for which the amyloid nucleation score worked out at 1.17 ± 0.3.

As for SAWQRIEWL, the amyloid nucleation score was -0.339 ± 0.64.

HFYCMV returned an amyloid nucleation score of 4.51 ± 0.11. Consider ESDLVLGRVR, for which the amyloid nucleation score amounted to 0.69 ± 0.49. The figure for CYVSFCKGA is 0.049 ± 0.76; for LNMVMLICNLWDVPHPRYLP it is 5.14 ± 0.052.

VISSRGALCRRAKQ: the amyloid nucleation score amounted to 0.409 ± 0.53.

Take LRGGTLVDNNLSANNYVYEI: the amyloid nucleation score is -0.967 ± 0.76.

Consider YHYDCYHLLTERKQGELVRT, for which the amyloid nucleation score is -0.425 ± 0.35. For the substance SQYFYMFWMSRATITNTIMP, the amyloid nucleation score was -0.217 ± 0.74. The figure for MEKARTGGGSVTHDGKCARW is 0.649 ± 0.22.

With YLLPSVTSVTY, the amyloid nucleation score is 0.993 ± 0.29. FSIKPLGQKDIR: the amyloid nucleation score stood at 5.47 ± 0.073. The result for RVLISQGLMYISHTMSG reads 5.337 ± 0.044. The figure for CGKCWCEVD is 0.359 ± 0.37; for HWRFFCMDHNFILSVKDVVA it is “inactive”; for YAVAEGFVASGYWTAYMPLS it is 0.487 ± 0.62.

Substance IDYVGYMKWMMV showed an amyloid nucleation score of 0.016 ± 0.38. The result for RYPVDRLVMSKRCPALRDGG reads 0.652 ± 0.23; that for GLLAPLSSCLCVRDFVGLKA, -0.187 ± 0.3; that for VRLRGYSR, -0.439 ± 0.39.

Consider SHLTNDVY, for which the amyloid nucleation score stood at 0.614 ± 0.43. The entry for QCLIDWSFTFLLNVVLDYFY is “inactive”; for YSQGDGL it is -0.038 ± 0.65. The result for TLCWLYLWVYRCKDYEELTC reads -0.167 ± 0.63; that for MDSMWPSVGGALKSRSGVFR, -0.126 ± 0.39; that for TILVTKG, 4.89 ± 0.11. The result for KVSHAWM reads 0.704 ± 0.53. As for MDCRLV, the amyloid nucleation score is 0.216 ± 0.51. The result for FAFKTLVWHRGVCRFPGARL reads “inactive”; that for VCYNT, 0.833 ± 0.74. The entry for VDDWSADIMKGDRVLYS is “inactive”; for FVEITRG it is -0.196 ± 1.1; for MNVGTFSLRFLSFDLL it is -0.054 ± 1.1. The figure for VWRTGRGYGRMWFLHISSMY is -0.207 ± 0.34; for SEFPIVQLCIAWDKLCKHLY it is -0.179 ± 0.26. With WSMVTVLRGDRG, the amyloid nucleation score worked out at 0.525 ± 0.54.

The substance MTIDCFTFRDQGVYGTLMLK yielded an amyloid nucleation score of 3.33 ± 0.043. The result for PFCCLWFGLMHSSGVFRFMG reads “inactive”; that for CVGGGRQKCEHNVMITLMTF, 4.22 ± 0.056; that for NLMGFCYVSAEWVFGGRPGY, 1.97 ± 0.14. The figure for FLLNIDTFSLMRSVTANTLV is -0.697 ± 0.48.

For MNGCTTANGIVDTRSNAFTC, the amyloid nucleation score worked out at 1.87 ± 0.097. On to YWFFNWEWSGLVVYVGRFSA, for which the amyloid nucleation score entry was “inactive”. The figure for TIDWTMSHCMI is -0.055 ± 0.56; for CDGAPSRLGRGLWGWSIMYG it is 0.921 ± 0.51. The figure for VMRRVVKKQSWYLIKGLSM is 0.802 ± 0.32; for KRSFVIRNLGFCALRLHISV it is 4.63 ± 0.11; for HKLCGYIYIRVIRSWKWYKQ it is -0.306 ± 0.63. Turning to AIWGTHPQRRDIRKRERIVV, the amyloid nucleation score was -0.205 ± 0.27. The figure for TIFFMGM is 3.65 ± 0.07; for TVFLTGRFCWVFPRSCYLSY it is -0.758 ± 0.33; for LTVYVFSDFSRATVGPSRWL it is 0.238 ± 0.48. As for GVGRWIQCQDSWNTNRPSQP, the amyloid nucleation score was 1.52 ± 0.27. The result for LVLTDSAYRFFKRGDSVDKC reads 1.62 ± 0.1; that for SAINIFGALAKCFMVMLALF, “inactive”.

On to YFMSRRE, for which the amyloid nucleation score is -0.04 ± 0.45. The substance VDREKKEKTLVDGTQMVTCL had an amyloid nucleation score of 1.12 ± 0.32. The result for HASWIGISLS reads -0.395 ± 0.74.

Source of the values: the supplement of paper PMC12042874.
